Laboratory results as given in patent publication CN113683686A (INST PASTEUR SHANGHAI CAS, dated 2021).

Key:
[1] = biological target: 重组的SARS-CoV-2 RBD蛋白 (S蛋白320-550位残基, 组氨酸标签) (SARS-CoV-2, UniProt P0DTC2 320-550); test: BLI (Octet RED96), His-tagged RBD on Ni-NTA sensor, antibody in solution
[2] = biological target: SARS-CoV-2 S蛋白 (on MLV-based SARS-CoV-2 pseudovirus) (SARS-CoV-2, UniProt P0DTC2 14-1273); test: cell-based or functional assay

B1: 单抗3C1 (anti-SARS-CoV-2 RBD mouse monoclonal antibody 3C1) (antibody, V domains shown)
VH: EVQLQESGPSLVKPSQTLSLTCSVTGDSITNGYWNWIRKFPGNKLEYMGYISYSGSTYYSPSLKSRISITRDTSKNQHYLQLNSVTSEDTATYYCASDYHGSKYYFDYWGQGTTLTVSS
VL: DIVMTQSHKFMSTSVGHRVSITCKASQDVGNDVAWYQQKPGQSPKLLIYWASTRHTGVPDRFTGSGSGTDFTLTISNVQSEDLADYFCQQYNRYPYTFGGGTKLEIK
Kd [1]: 13 nM | 半数抑制浓度(IC50), SARS-CoV-2假病毒中和试验 (VeroE6, luciferase) [2]: 1.91 µg/mL

B2: 单抗2H2 (anti-SARS-CoV-2 RBD mouse monoclonal antibody 2H2) (antibody, V domains shown)
VH: QVQLKQSGPSLVQPSQSLSITCTVSGFSLTSYGVHWVRQSPGKGLEWLGVMWRGGNTDYNAAFMSRLSITKDNSKSQVFFKMNSLQTDDTAIYYCAKNGGAHAMDFWGQGTSVTVSS
VL: NIVLTQSPASLAVSLGQRATISCRASESVDSYGNSFLHWYQQKPGQPPKLLIYLASNLESGVPARFSGSGSRTDFTLTIDPVEADDAATYYCQQNNEDPFTFGSGTKLEIK
Kd [1]: 7.5 nM | 半数抑制浓度(IC50), SARS-CoV-2假病毒中和试验 (VeroE6, luciferase) [2]: 0.005 µg/mL
